Assay results taken from patent US12234269B2, “Osteogenic biomaterial” (Northeast Ohio Medical University, priority 2014, dated 2025).
Values belong to the molecule of their own block, whether it stands above or below them.

Columns and labels:
[1] = Osteogenic activity of the peptide fragment
Text: A preferred osteoactivin active peptide fragment for use in the present invention is the amino acid sequence LAPFSRGDREKDPLLQDK (SEQ ID NO: 1). […] Accordingly, in some embodiments, shorter sections of SEQ ID NO: 1 consisting of 6 or 12 amino acids can be used.

bone defect = conditions: at 4 weeks; none of the control animals showed complete bone fill; cited from earlier work
CD44 = target: T1, CD44 (Mus musculus, UniProt P15379); test: Binding of biotinylated rOA on MC3T3-E1 cells (immunofluorescence, immunoprecipitation, blot for CD44)
T1 construct: biotinylated rOA added onto MC3T3-E1 cells; endogenous in cells; host or cells: MC3T3-E1
T1 sequence (P15379 23-778): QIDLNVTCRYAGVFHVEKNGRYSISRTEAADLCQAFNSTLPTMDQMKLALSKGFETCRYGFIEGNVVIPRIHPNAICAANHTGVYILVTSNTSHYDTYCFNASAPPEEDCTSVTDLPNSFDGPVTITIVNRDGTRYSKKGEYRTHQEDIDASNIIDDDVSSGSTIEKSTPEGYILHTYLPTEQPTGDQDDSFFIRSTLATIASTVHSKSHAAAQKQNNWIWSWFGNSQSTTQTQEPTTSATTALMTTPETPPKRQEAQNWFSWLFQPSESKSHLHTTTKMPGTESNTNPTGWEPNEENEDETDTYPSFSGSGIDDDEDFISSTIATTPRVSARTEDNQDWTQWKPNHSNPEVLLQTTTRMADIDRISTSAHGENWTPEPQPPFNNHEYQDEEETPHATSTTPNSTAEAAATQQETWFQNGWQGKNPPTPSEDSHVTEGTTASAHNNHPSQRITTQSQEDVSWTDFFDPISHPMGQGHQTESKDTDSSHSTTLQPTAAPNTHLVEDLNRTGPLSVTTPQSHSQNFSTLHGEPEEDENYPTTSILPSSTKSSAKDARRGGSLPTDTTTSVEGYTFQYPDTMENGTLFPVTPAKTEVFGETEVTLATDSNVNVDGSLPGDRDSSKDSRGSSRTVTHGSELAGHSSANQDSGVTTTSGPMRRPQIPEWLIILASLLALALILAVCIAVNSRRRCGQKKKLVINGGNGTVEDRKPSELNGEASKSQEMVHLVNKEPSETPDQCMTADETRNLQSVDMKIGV
Text: FIG. 3(A-C) provides images showing osteoactivin binds to CD44 in bone cells. (A) Silver staining and mass spectroscopy analysis of biotinylated rOA added onto MC3T3-E1 cells.

[2] = CBC, CMP, urinalysis and histological sampling of OA-treated sheep; type: in vivo, sheep (Ovis aries)
Text: Approval of the Northeast Ohio Medical University Institutional Animal Care and Use Committee (IACUC) was obtained prior to the start of this study. Six (6) male sheep (Ovis aries) between ages 2-3 years old were used, each with a critical size defect (25 mm in depth×11 mm in diameter) drilled into bilateral hind limb distal femurs. The surgical protocol utilized was based on previous work done to develop a model for cancellous bone healing (Malhotra et al, Front Surg. 2014 Sep. 8; 1:37). This method allowed for high quality standardization and sterility processes across each sheep. […] Martini et al., Comp Med. 2001 August; 51(4):292-9; Pearce et al., Eur Cell Mater. 2007 Mar. 2; 13:1-10. The procedures were performed by an orthopedic surgeon. Once under appropriate anesthesia, one femur defect (left hindlimb) was drilled with a cannulated acorn drill (Stryker) and packed with an PBS absorbable collagen sponge (Medline Industries) without OA protein and thus functioned as a control, while the other defect (right hindlimb) was filled with either a low dose (10 μg), or high dose (50 μg) recombinant OA-soaked collagen sponge (R&D Systems). Three sheep received the high dose OA while two received the low dose OA, and one was left as a control. The animals were allowed to recover and then terminated after a period of 10 weeks. […]

bone segmental defect = test: Local delivery in a model of bone segmental defect; type: in vivo
Text: It is synthesized and secreted by osteoblasts where it acts as signaling molecule to promote osteoblast differentiation and function. […] Research has also shown that OA is involved in mouse and human stem cells differentiation to bone cells, and that OA is responsible to transdifferentiate muscle cells to bone forming osteoblasts. The receptor for OA in bone and mesenchymal stem cells is CD44. OA induces differentiation of mesenchymal stem cells to bone cells through CD44.

[3] = test system: critical size defects in bilateral distal femurs; test: Sheep model for cancellous bone healing (critical size defect in distal femur, OA-soaked collagen sponge); type: in vivo, sheep (Ovis aries); conditions: for radiographic analysis: regeneration of bone at the defect site: vs control femurs
Text: Thus, the sheep model provides a way to study the effect of OA on osteogenesis by inducing critical size defects into the long bones of the animals. […] Approval of the Northeast Ohio Medical University Institutional Animal Care and Use Committee (IACUC) was obtained prior to the start of this study. Six (6) male sheep (Ovis aries) between ages 2-3 years old were used, each with a critical size defect (25 mm in depth×11 mm in diameter) drilled into bilateral hind limb distal femurs. The surgical protocol utilized was based on previous work done to develop a model for cancellous bone healing (Malhotra et al, Front Surg. 2014 Sep. 8; 1:37). This method allowed for high quality standardization and sterility processes across each sheep. […] Martini et al., Comp Med. 2001 August; 51(4):292-9; Pearce et al., Eur Cell Mater. 2007 Mar. 2; 13:1-10. The procedures were performed by an orthopedic surgeon. Once under appropriate anesthesia, one femur defect (left hindlimb) was drilled with a cannulated acorn drill (Stryker) and packed with an PBS absorbable collagen sponge (Medline Industries) without OA protein and thus functioned as a control, while the other defect (right hindlimb) was filled with either a low dose (10 μg), or high dose (50 μg) recombinant OA-soaked collagen sponge (R&D Systems). Three sheep received the high dose OA while two received the low dose OA, and one was left as a control. The animals were allowed to recover and then terminated after a period of 10 weeks. The femurs were harvested for x-ray (General Electric) and μCT (Scanco) imaging. Blood and urine samples were collected for CBC, CMP and urinalysis (ANTECH Diagnostics). Tissue biopsies were taken from heart, lung, liver, spleen, kidney, thyroid gland, adrenal gland, and skeletal muscle for RNA and histological analyses during post-mortem dissection.

Molecule: LAPFSRGDREKDPLLQDK (listed as Homo sapiens) [SEQ ID NO: 1]
osteogenic activity [1]: demonstrated the osteogenic activity

Immunoprecipitation of biotinylated rOA pulled out with streptavidin beads and blotted for CD44 (CD44; MC3T3-E1 cells): OA-CD44 interaction
Immunofluorescence of CD44 and OA (CD44; bone cells): colocalization along the cell membrane
B1: OA: 572 amino acid transmembrane glycoprotein encoded by the GPNMB gene; recombinant protein (R&D Systems) soaked into collagen sponge (protein, UniProt Q14956 23-572, looked up)
Transmembrane glycoprotein NMB: KRFHDVLGNERPSAYMREHNQLNGWSSDENDWNEKLYPVWKRGDMRWKNSWKGGRVQAVLTSDSPALVGSNITFAVNLIFPRCQKEDANGNIVYEKNCRNEAGLSADPYVYNWTAWSEDSDGENGTGQSHHNVFPDGKPFPHHPGWRRWNFIYVFHTLGQYFQKLGRCSVRVSVNTANVTLGPQLMEVTVYRRHGRAYVPIAQVKDVYVVTDQIPVFVTMFQKNDRNSSDETFLKDLPIMFDVLIHDPSHFLNYSTINYKWSFGDNTGLFVSTNHTVNHTYVLNGTFSLNLTVKAAAPGPCPPPPPPPRPSKPTPSLATTLKSYDSNTPGPAGDNPLELSRIPDENCQINRYGHFQATITIVEGILEVNIIQMTDVLMPVPWPESSLIDFVVTCQGSIPTEVCTIISDPTCEITQNTVCSPVDVDEMCLLTVRRTFNGSGTYCVNLTLGDDTSLALTSTLISVPDRDPASPLRMANSALISVGCLAIFVTVISLLVYKKHKEYNPIENSPGNVVRSKGLSVFLNRAKAVFFPGNQEKDPLLKNQEFKGVS
animals showing complete bone fill (bone defect): 70%
adverse systemic effects per laboratory studies or histological sampling ([2]; administered locally, sheep): no apparent adverse systemic effects
CBC, CMP and urinalysis ([2]; control vs OA-treated sheep): no apparent abnormalities
bone regeneration (bone segmental defect): stimulates bone regeneration
radiographs and μCT of the femur defect site ([3]; 50 μg OA, after 10 weeks, compared to control (FIG. 2)): regenerated bone
bone healing and regeneration (radiographic, μCT imaging and histological analysis) ([3]; OA-soaked absorbable collagen sponge vs defect only or collagen sponge alone, n=6): significantly accelerated bone healing and regeneration
Micro-CT bone volume and density of the regenerated area ([3]; OA-treated defect sites vs control, 10 weeks): significant increase
radiographic analysis: regeneration of bone at the defect site ([3]; high dose (50 μg) recombinant OA-soaked collagen sponge, 10 weeks): complete regeneration of bone at the defect site
radiographic analysis: regeneration of bone at the defect site ([3]; low dose (10 μg) recombinant OA-soaked collagen sponge, 10 weeks): complete regeneration of bone at the defect site
